Test results: IntAct's records for PubMed 22252131
Blank lines part the entries; values can stand above or below the substance they belong to.

Experiments:
hakai_mouse Cbll1 [1] = target: hakai_mouse Cbll1 (UniProt Q9JIY2)
hakai_mouse Cbll1 [2] = target: hakai_mouse Cbll1 (UniProt Q9JIY2); remark: listed apart in the source
hakai_mouse Cbll1 [3] = target: hakai_mouse Cbll1 (UniProt Q9JIY2); remark: listed apart in the source
hakai_mouse Cbll1 [4] = target: hakai_mouse Cbll1 (UniProt Q9JIY2); remark: listed apart in the source

Chain of hakai_mouse Cbll1 (Q9JIY2 whole entry): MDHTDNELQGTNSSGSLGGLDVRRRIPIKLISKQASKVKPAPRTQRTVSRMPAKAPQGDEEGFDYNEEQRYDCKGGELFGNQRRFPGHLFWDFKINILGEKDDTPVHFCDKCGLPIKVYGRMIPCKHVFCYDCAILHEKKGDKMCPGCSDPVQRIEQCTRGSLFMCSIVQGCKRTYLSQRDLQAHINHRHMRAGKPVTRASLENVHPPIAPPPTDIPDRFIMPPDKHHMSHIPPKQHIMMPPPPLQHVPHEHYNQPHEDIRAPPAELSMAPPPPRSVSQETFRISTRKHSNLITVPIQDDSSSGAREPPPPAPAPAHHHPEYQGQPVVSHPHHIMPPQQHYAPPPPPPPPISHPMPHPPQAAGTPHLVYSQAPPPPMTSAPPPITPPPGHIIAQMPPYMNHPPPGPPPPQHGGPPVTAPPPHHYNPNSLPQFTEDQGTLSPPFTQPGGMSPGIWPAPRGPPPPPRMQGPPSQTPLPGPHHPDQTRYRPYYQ
Chain of Src substrate cortactin (Mus musculus), Q60598 D480A (Q60598 whole entry D480A): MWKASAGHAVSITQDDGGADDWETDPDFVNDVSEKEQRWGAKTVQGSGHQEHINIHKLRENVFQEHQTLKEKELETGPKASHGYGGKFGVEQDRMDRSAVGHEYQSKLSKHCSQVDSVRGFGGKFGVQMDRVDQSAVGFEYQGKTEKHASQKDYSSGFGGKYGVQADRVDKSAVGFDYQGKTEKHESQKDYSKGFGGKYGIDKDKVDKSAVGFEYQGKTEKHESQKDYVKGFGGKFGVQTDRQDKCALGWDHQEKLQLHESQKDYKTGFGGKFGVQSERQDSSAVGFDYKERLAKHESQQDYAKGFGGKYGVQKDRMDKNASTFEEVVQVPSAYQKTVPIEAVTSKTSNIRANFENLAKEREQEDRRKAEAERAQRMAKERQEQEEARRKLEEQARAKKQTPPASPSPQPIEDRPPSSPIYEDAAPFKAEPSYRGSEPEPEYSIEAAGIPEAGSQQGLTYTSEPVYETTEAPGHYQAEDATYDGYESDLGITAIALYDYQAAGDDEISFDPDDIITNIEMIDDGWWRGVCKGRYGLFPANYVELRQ
Chain of Src substrate cortactin (Mus musculus), Q60598 Y482F (Q60598 whole entry Y482F): as the sequence (Q60598 whole entry D480A) above, with A480D, Y482F counted along it
Chain of Src substrate cortactin (Mus musculus), Q60598 E478A (Q60598 whole entry E478A): as the sequence (Q60598 whole entry D480A) above, with E478A, A480D counted along it

effect of a mutation on the interaction (hakai_mouse Cbll1 [1]): decreasing interaction
Substance: Src substrate cortactin (Mus musculus), Q60598 D480A

effect of a mutation on the interaction (hakai_mouse Cbll1 [2]): decreasing interaction
Substance: Src substrate cortactin (Mus musculus), Q60598 E478A

effect of a mutation on the interaction (hakai_mouse Cbll1 [3]): disrupting interaction
Substance: Src substrate cortactin (Mus musculus), Q60598 E486A

effect of a mutation on the interaction (hakai_mouse Cbll1 [4]): disrupting interaction
Substance: Src substrate cortactin (Mus musculus), Q60598 Y482F
